# Reference: paper PMC4923861
# How the values were obtained:
# [1] = target: CKK domain of mouse CAMSAP3/Marshalin-Ld (CKK1 or CKK2, not told for this experiment) (UniProt Q80VC9); assay: GST pull-down; details: n = 4; parent: est. 1.0; read off a plot
# [2] = target: CAMSAP3/Marshalin-Ld, V5-His tagged (mouse) (UniProt Q80VC9)
# [3] = target: CKK1, CKK domain construct of mouse CAMSAP3/Marshalin-Ld (residues 1020–1253) (mouse)
substance,measurement,setting,value
"GST-CDH23-C_1–67 (first 67 residues of mouse CDH23-C; CKK binding motif, CBM) R55H",response (relative intensity),[1],0.65
"GST-tagged CDH23-C1 (mouse cadherin 23, C isoform, subtype 1) (natural protein)","decrease of the percent of OK cells with type III (long strings) CAMSAP3/Marshalin-Ld pattern on co-expression of CDH23-C1-GFP, against GFP (54.1% type III), 24 hours after co-transfection",[2],21.3%
same,"percent of OK cells with CKK1-induced MT bundles, CKK1 (V5-His) co-expressed with CDH23-C1-GFP, 44 to 68 hours after transfection (19.9% with GFP)",[3],5.5%
"GST-tagged CDH23-C2 (mouse cadherin 23, C isoform, subtype 2) (natural protein)","decrease of the percent of OK cells with type III (long strings) CAMSAP3/Marshalin-Ld pattern on co-expression of CDH23-C2-GFP, against GFP (54.1% type III), 24 hours after co-transfection",[2],20%
